This note sets out measurements from publication PMC2150902 (The Journal of Cell Biology, 2001).

Usually stoichiometry N stands for the number of molecules, sites or subunits per partner or assembly.

The data set deals with the molecule itself. Kind of data set: dynamic light scattering.

B1: Δ9-Sar1A (hamster Sar1 lacking residues 2–9), GDP-bound form (domain or fragment)
chain: not shown
For B1, the “stoichiometry N” value amounted to 2.
